pKd: −log10 of the molar value.
How the values were obtained:
[1] = target: methanol dehydrogenase α subunit from Methylococcus capsulatus (Bath) (Methylococcus capsulatus (Bath)); assay: SEC-MALS
[2] = target: methanol dehydrogenase α subunit from Methylococcus capsulatus (Bath) (Methylococcus capsulatus (Bath)); assay: SEC
[3] = target: methanol dehydrogenase from Methylococcus capsulatus (Bath), α2β2 dimer (Methylococcus capsulatus (Bath)); assay: BLI

| stoichiometry N [1] | stoichiometry N [2] | pKd [3] | Substance |
| --- | --- | --- | --- |
| 2 | 2 | – | methanol dehydrogenase α subunit from Methylococcus capsulatus (Bath) (natural protein) |
| – | – | 5.05 | spmoB, truncated recombinant periplasmic domains of M. capsulatus (Bath) pMMO subunit pmoB (domain or fragment) |

— publication PMC4188263
